Experimental data reported in US20260115279A1 (VIB VZW, published 2026).

Columns and labels:
[1] = target: BamA, E. coli, untagged (endogenous, or co-expressed from pSlyB-BamA with its native signal peptide) (E. coli, UniProt P0A940 21-810); assay: cell-based or functional assay
[2] = target: the molecule itself; assay: α-SlyB Western of semi-native PAGE of whole cell lysate, with or without 1 mM EDTA

Protein | cellular thermal shift assay (CETSA) on cells treated with EDTA: melting temperature of BamA in ΔslyB mutant versus WT cells [1] [°C] | binding result [2]
SlyB, native (endogenous) lipoprotein of E. coli (other, N-terminal Cys18 carries the lipid anchor) CVNNDTLSGDVYTASEAKQVQNVSYGTIVNVRPVQIQGGDDSNVIGAIGGAVLGGFLGNTVGGGTGRSLATAAGAVAGGVAGQGVQSAMNKTQGVELEIRKDDGNTIMVVQKQGNTRFSPGQRVVLASNGSQVTVSPR | ~4 | 
SlyB^PL, SlyB mutant I65A/V69A/F73A with disrupted outer leaflet phospholipid binding site (other, whole, on cells; Tested in whole cell lysates and membrane fractions) CVNNDTLSGDVYTASEAKQVQNVSYGTIVNVRPVQIQGGDDSNVIGAAGGAALGGALGNTVGGGTGRSLATAAGAVAGGVAGQGVQSAMNKTQGVELEIRKDDGNTIMVVQKQGNTRFSPGQRVVLASNGSQVTVSPR |  | no binding
